Laboratory results from patent US20200347133A1 (INHIBRX, published 2020).

What was measured:
[1] = biological target: T1, CD33M, full length human CD33 protein expressed on transfected cells (human, UniProt P20138 18-303); experiment: flow cytometry on cells transfected with CD33M; apparent Kd, one-site fit
T1 construct: also called full length CD33
Procedure: (§1) Binding of sdAbs to human CD33 was assessed by flow cytometry. […] MOLM-13 cells were transiently transfected with a plasmid encoding a sequence comprising “CD33M” (SEQ ID NO: 112) or a plasmid encoding a sequence comprising a truncated version, “CD33m” (SEQ ID NO: 113). The sequence encoded by the CD33M plasmid includes the leader sequence, full extracellular domain, transmembrane domain, and cytoplasmic domain. The sequence encoded by the CD33m plasmid includes the leader sequence, the membrane proximal IgC2 domain, and the transmembrane domain. Untransfected HEK 293 cells were used as CD33-negative cells. Each cell type was plated at 30,000 cells/well in FACS buffer (PBS 1% BSA, 0.1% NaN₃ pH 7.4) on a 96-well round-bottom plate. The sdAbs were diluted in FACS buffer in a 3-fold, 11 point serial dilution. The sdAb dilutions were added to the plated cells, and assay plates were incubated for 30 minutes at 4° C. After washing twice in 150 μL of FACS buffer, cells in each well were resuspended in 100 μL of 1:2000 Alexa Fluor 647-conjugated Anti-Human IgG secondary diluted in FACS buffer and incubated at 4° C. for 30 minutes. The cells were washed twice more, then bound antibody was detected by flow cytometry.
(§2) Flow cytometric analysis was performed on an Intellicyte iQue Plus and fluorescence was plotted as median fluorescence intensity. The apparent affinity (Kd, nM) was determined using one site binding non-linear regression in PRISM graph software.

[2] = biological target: T2, CD33m, truncated human CD33 protein expressed on transfected cells (human, UniProt P20138 140-259); experiment: flow cytometry on cells transfected with truncated CD33m; apparent Kd, one-site fit
T2 construct: leader and transmembrane domain are not in it; also called truncated CD33
T2 sequence (P20138 140-259 limits assumed): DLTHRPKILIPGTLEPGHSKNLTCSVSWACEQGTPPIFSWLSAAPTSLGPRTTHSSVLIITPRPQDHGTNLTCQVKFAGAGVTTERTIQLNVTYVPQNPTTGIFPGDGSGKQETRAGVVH
Procedure: as §1, §2

[3] = biological target: T2, CD33m, truncated human CD33 protein …; experiment: flow cytometry on cells labelled CD33m-HEK-293, anti-human IgG Alexa Fluor 647 secondary, median fluorescence
Procedure: (§3) Binding of sdAbs to human CD33 was assessed by flow cytometry. […] MOLM-13 cells were transiently transfected with a plasmid encoding a sequence comprising “CD33M” (SEQ ID NO: 112) or a plasmid encoding a sequence comprising a truncated version, “CD33m” (SEQ ID NO: 113). The sequence encoded by the CD33M plasmid includes the leader sequence, full extracellular domain, transmembrane domain, and cytoplasmic domain. The sequence encoded by the CD33m plasmid includes the leader sequence, the membrane proximal IgC2 domain, and the transmembrane domain. Untransfected HEK 293 cells were used as CD33-negative cells. Each cell type was plated at 30,000 cells/well in FACS buffer (PBS 1% BSA, 0.1% NaN₃ pH 7.4) on a 96-well round-bottom plate. The sdAbs were diluted in FACS buffer in a 3-fold, 11 point serial dilution. The sdAb dilutions were added to the plated cells, and assay plates were incubated for 30 minutes at 4° C. […] The cells were washed twice more, then bound antibody was detected by flow cytometry.
as §2

[4] = biological target: T1, CD33M, full length human CD33 protein …; experiment: flow cytometry on cells labelled CD33M-HEK-293, anti-human IgG Alexa Fluor 647 secondary, median fluorescence
Procedure: Binding of sdAbs to human CD33 was assessed by flow cytometry. […] […] The sequence encoded by the CD33M plasmid includes the leader sequence, full extracellular domain, transmembrane domain, and cytoplasmic domain. The sequence encoded by the CD33m plasmid includes the leader sequence, the membrane proximal IgC2 domain, and the transmembrane domain. Untransfected HEK 293 cells were used as CD33-negative cells. Each cell type was plated at 30,000 cells/well in FACS buffer (PBS 1% BSA, 0.1% NaN₃ pH 7.4) on a 96-well round-bottom plate. The sdAbs were diluted in FACS buffer in a 3-fold, 11 point serial dilution. The sdAb dilutions were added to the plated cells, and assay plates were incubated for 30 minutes at 4° C. After washing twice in 150 μL of FACS buffer, cells in each well were resuspended in 100 μL of 1:2000 Alexa Fluor 647-conjugated Anti-Human IgG secondary diluted in FACS buffer and incubated at 4° C. for 30 minutes. The cells were washed twice more, then bound antibody was detected by flow cytometry.
as §2

[5] = biological target: T1, CD33M, full length human CD33 protein …; experiment: flow cytometry on Molm-13 cells transfected with CD33 (CD33M per Table 3), anti-human IgG Alexa Fluor 647 secondary, median fluorescence
Procedure: as §3, §2

[6] = biological target: T1, CD33M, full length human CD33 protein …; experiment: flow cytometry on Molm-13 cells transfected with CD33 (CD33M per Table 3), fluorescent anti-human IgG secondary, axis Median BL-1H
[7] = biological target: T2, CD33m, truncated human CD33 protein …; experiment: flow cytometry on cells transfected with truncated CD33m; apparent Kd, one-site fit; CD33m isoform, not CD33M
Procedure: as §3, §2

T1 sequence (P20138 18-303): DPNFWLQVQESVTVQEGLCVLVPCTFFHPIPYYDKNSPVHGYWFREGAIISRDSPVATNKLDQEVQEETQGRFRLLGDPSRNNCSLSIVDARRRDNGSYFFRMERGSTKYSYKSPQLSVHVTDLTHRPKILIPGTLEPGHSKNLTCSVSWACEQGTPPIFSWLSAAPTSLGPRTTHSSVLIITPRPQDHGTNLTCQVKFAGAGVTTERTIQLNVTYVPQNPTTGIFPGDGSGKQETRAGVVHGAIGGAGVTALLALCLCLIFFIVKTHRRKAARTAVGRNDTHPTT

Binder | Kd [1] [nM] | Kd [2] [nM] | EC50 (read off the curve) [3] [nM] | EC50 (read off the curve) [4] [nM] | EC50 (read off the curve) [5] [nM] | EC50 (read off the curve) [6] [nM] | Kd [7] [nM]
hzF02v18 sdAb (hzF02v18 VHH domain fused to human IgG1 xELL Fc region) (Fc fusion, VHH-Fc; no linker stated; also called hzF02v18-IgG1) EVQLVESGGGEVQPGGSLRLSCAASGSISSYNVMGWYRQAPGKQRELVAQINAYGDTNYANAVVGRFTISRDNAKNTVYLQMSSLRAEDTAVYYCNGQRMLENYTYRDQSWGQGTLVTVDKTHTCPPCPAPGGPSVFLFPPKPKDTLMISRTPEVTCVVVDVSHEDPEVKFNWYVDGVEVHNAKTKPREEQYNSTYRVVSVLTVLHQDWLNGKEYKCKVSNKALPAPIEKTISKAKGQPREPQVYTLPPSRDELTKNQVSLTCLVKGFYPSDIAVEWESNGQPENNYKTTPPVLDSDGSFFLYSKLTVDKSRWQQGNVFSCSVMHEALHNHYTQKSLSLSPGK | 14.8 | 9.13 | ~8 | 10 to 100 |  |  | 
hz1C7v1 sdAb (hz1C7v1 VHH domain fused to human IgG1 xELL Fc region) (Fc fusion, VHH-Fc; no linker stated; also called hz1C7v1-IgG1) EVQLVESGGGEVQPGGSLRLSCAASGRTFSGYIMGWFRQAPGKERELVARISGNNLSTEYAESVKGRFTISRDNAKNTLYLQMSSLRAEDTAVYYCAAEYDYSSGDFVYWGQGTLVTVDKTHTCPPCPAPGGPSVFLFPPKPKDTLMISRTPEVTCVVVDVSHEDPEVKFNWYVDGVEVHNAKTKPREEQYNSTYRVVSVLTVLHQDWLNGKEYKCKVSNKALPAPIEKTISKAKGQPREPQVYTLPPSRDELTKNQVSLTCLVKGFYPSDIAVEWESNGQPENNYKTTPPVLDSDGSFFLYSKLTVDKSRWQQGNVFSCSVMHEALHNHYTQKSLSLSPGK | 6.25 |  |  |  | ~6 |  | 
hz1C7v11 sdAb (hz1C7v11 VHH domain fused to human IgG1 xELL Fc region) (Fc fusion, VHH-Fc; no linker stated; also called hz1C7v11-IgG1) EVQLVESGGGEVQPGGSLRLSCAASGRTFSGYIMGWFRQAPGKERELVARISGNNLATEYAESVKGRFTISRDNAKNTLYLQMSSLRAEDTAVYYCAAEYDYSSGDFVYWGQGTLVTVDKTHTCPPCPAPGGPSVFLFPPKPKDTLMISRTPEVTCVVVDVSHEDPEVKFNWYVDGVEVHNAKTKPREEQYNSTYRVVSVLTVLHQDWLNGKEYKCKVSNKALPAPIEKTISKAKGQPREPQVYTLPPSRDELTKNQVSLTCLVKGFYPSDIAVEWESNGQPENNYKTTPPVLDSDGSFFLYSKLTVDKSRWQQGNVFSCSVMHEALHNHYTQKSLSLSPGK | 5.45 |  |  |  |  | ~5 | 
A07 sdAb (A07 VHH domain fused to human IgG1 xELL Fc region) (Fc fusion, VHH-Fc; no linker stated) QVQLVQSGGGLVQAGGSLTLSCAASRSSGIDVMGWYRQAPGKERELVAEISGVGDTNYAASLADRFTVSRDNAKNTVYLQMKNLKPEDTAVYYCNAHSFLDLVGAWGQGTQVTVDKTHTCPPCPAPGGPSVFLFPPKPKDTLMISRTPEVTCVVVDVSHEDPEVKFNWYVDGVEVHNAKTKPREEQYNSTYRVVSVLTVLHQDWLNGKEYKCKVSNKALPAPIEKTISKAKGQPREPQVYTLPPSRDELTKNQVSLTCLVKGFYPSDIAVEWESNGQPENNYKTTPPVLDSDGSFFLYSKLTVDKSRWQQGNVFSCSVMHEALHNHYTQKSLSLSPGK | 53.5 |  |  |  |  |  | 19.9
hzA07v4 sdAb (hzA07v4 VHH domain fused to human IgG1 xELL Fc region) (Fc fusion, VHH-Fc; no linker stated; also called hzA07v4-IgG1) EVQLVESGGGEVQPGGSLRLSCAASRSSGIDVMGWYRQAPGKERELVAEISGVGDTNYAASLADRFTVSRDNAKNTVYLQMSSLRAEDTAVYYCNAHSFLDLVGAWGQGTLVTVDKTHTCPPCPAPGGPSVFLFPPKPKDTLMISRTPEVTCVVVDVSHEDPEVKFNWYVDGVEVHNAKTKPREEQYNSTYRVVSVLTVLHQDWLNGKEYKCKVSNKALPAPIEKTISKAKGQPREPQVYTLPPSRDELTKNQVSLTCLVKGFYPSDIAVEWESNGQPENNYKTTPPVLDSDGSFFLYSKLTVDKSRWQQGNVFSCSVMHEALHNHYTQKSLSLSPGK | 56.6 | 11.8 | ~9 |  |  |  | 
